Test results as given in patent publication US12365732 (23ANDME, dated 2025).

T1: hu-CD96 isoform 2 on CHO cells (human, UniProt P40200 22-585)
T1 construct: also called CHO-CD96 (isoform 2); CD96-CHOs
T1 sequence: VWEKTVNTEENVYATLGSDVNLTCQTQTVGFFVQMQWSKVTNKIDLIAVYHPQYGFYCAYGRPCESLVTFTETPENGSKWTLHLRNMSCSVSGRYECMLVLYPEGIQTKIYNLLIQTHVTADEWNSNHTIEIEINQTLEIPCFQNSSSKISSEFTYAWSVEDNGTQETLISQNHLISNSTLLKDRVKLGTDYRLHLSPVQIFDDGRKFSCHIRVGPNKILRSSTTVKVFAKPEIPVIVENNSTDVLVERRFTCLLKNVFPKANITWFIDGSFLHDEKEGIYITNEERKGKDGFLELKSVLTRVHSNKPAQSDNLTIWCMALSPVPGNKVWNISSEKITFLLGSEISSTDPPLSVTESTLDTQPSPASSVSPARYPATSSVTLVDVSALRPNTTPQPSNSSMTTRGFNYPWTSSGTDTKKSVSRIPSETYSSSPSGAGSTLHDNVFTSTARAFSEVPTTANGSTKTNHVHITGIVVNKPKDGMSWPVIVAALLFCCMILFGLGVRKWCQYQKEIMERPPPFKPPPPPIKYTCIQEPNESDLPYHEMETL

T2: hu-CD96 isoform 1 on HEK293T cells (human, UniProt P40200 22-585)
T2 construct: Origene RC213845, transient expression; also called HEK293T-CD96 (iso1)
T2 sequence: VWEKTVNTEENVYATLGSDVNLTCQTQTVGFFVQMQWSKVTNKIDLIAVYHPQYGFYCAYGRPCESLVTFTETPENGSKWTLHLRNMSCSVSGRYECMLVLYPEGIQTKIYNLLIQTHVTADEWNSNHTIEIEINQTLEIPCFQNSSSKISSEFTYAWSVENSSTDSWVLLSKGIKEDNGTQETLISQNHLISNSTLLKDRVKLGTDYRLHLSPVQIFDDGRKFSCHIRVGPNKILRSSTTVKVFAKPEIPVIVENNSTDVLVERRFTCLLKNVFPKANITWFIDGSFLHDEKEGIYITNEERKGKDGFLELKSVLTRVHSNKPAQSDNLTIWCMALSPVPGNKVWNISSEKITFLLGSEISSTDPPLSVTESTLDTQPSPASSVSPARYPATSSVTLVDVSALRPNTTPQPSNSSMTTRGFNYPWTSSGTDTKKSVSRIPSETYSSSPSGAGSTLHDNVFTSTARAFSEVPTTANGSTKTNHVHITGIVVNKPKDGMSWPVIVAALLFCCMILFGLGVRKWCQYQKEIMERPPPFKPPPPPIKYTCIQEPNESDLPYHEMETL


Experiments:
hu-CD96 Fc = target: T3, hu-CD96 Fc (human, biotinylated in Table 16); assay: SPR 25C, CD96-Fc on Protein A, Fab analyte
T3 construct: also called biotinylated hu-CD96-Fc
Method: Briefly, hu-CD96 Fc and cy-CD96 Fc were diluted at 10 µg/mL in HBS-P buffer (0.01 M HEPES pH 7.4, 0.15 M NaCl, 0.005% Surfactant P20) and applied to the Protein A chip at 30 µL/min flow rate for 60 s in flow cell 2 (FC2). Then flow 3-fold serial dilutions of mAb1.v7 Fab variants in HBS-P buffer (0.01 M HEPES pH 7.4, 0.15 M NaCl, 0.005% surfactant P20) from (0.4 nM) to high (1000 nM) were injected (flow rate: 30 µL/min) at 25° C. to both flow cell 1 (FC1) and flow cell 2 (FC2). The sensorgram was recorded and subject to reference and buffer subtraction before evaluating by BIA- CORE® 8K Evaluation Software (version 1.1.1.7442). Association rates ($kon$) and dissociation rates ($koff$) were calculated using a simple one-to-one Langmuir binding model. The equilibrium dissociation constant (K_D) was calculated as the ratio of $koff/kon$, and the values determined for the mAb1.v7 and the 5 Fab variants are summarized in Table 10 (below).

[1] = target: T1, hu-CD96 isoform 2 on CHO cells; assay: FACS, CD155-Fc-FLAG 10 nM, Ab 0.032 nM
Method: (§1) CHO cells stably expressing isoform 2 of hu-CD96 (Origene, catalog #RC221005) were incubated with anti-CD96 antibodies for 20 minutes at 4° C. The cells were washed, and then incubated with 10 nM human CD155-Fc-FLAG for 30 minutes at 4° C. Cells were washed, and then human CD155-Fc-FLAG binding was detected by incubation with anti-FLAG-APC (Columbia Biosciences, catalog #D3-1718-1MG) for 20 minutes at 4° C. Cell binding was analyzed by flow cytometry with a CytoFLEX (Beckman Coulter). CD155 binding is represented as median fluorescence intensity (MedFI).
(§2) As shown in Table 20 (below), the anti-CD96 antibodies, mAb1.v7.NGS8, mAb1.v7.NGS9, mAb1.v7.NGS10, mAb1.v7.NGS11, and h10G1 inhibited soluble hu-CD155 binding to CD96-expressing CHO cells dose-dependently and potently. The antibody NK92.39 (Fuchs et al., 2004; Biolegend catalog #338405) inhibited receptor binding similarly.

[2] = target: T1, hu-CD96 isoform 2 on CHO cells; assay: FACS, CD155-Fc-FLAG 10 nM, Ab 20 nM
Method: as §1, §2

[3] = target: T1, hu-CD96 isoform 2 on CHO cells; assay: FACS, CD155-Fc-FLAG 10 nM, Ab 0.16 nM
Method: as §1, §2

[4] = target: T2, hu-CD96 isoform 1 on HEK293T cells; assay: FACS, Ab 50 nM
Method: (§3) Isoform 1 of hu-CD96 (Origene, catalog #RC213845) was transiently expressed in HEK293T cells following standard lipofectamine or Fugene transfection protocol. […] Cells were washed, and binding was detected by incubation with anti-mouse IgG-FITC (Biolegend, catalog #406001) for 20 minutes at 4° C. Cell binding was analyzed by flow cytometry with a CytoFLEX (Beckman Coulter). Binding curves were calculated as a percentage of cells positive for bound antibody.

[5] = target: T1, hu-CD96 isoform 2 on CHO cells; assay: FACS, Ab 0.08 nM
Method: as §3
Isoform 2 of hu-CD96 (DNA construct: Origene, catalog #RC221005) was expressed on a single-cell-clone-derived CHO stable cell line. Binding of the anti-CD96 antibodies to the CHO cells were determined as described above with isoform 1 of hu-CD96.

Binder	Kd (hu-CD96 Fc) [nM]	koff (hu-CD96 Fc) [s⁻¹]	kon (hu-CD96 Fc) [M⁻¹ s⁻¹]	CD155-Fc binding (MedFI) [1] [MedFI]	CD155-Fc binding (MedFI) [2] [MedFI]	CD155-Fc binding (MedFI) [3] [MedFI]	% positive [4] [%]	% positive [5] [%]
mAb1.v7 Fab (Fab, V domains shown) VH: EVQLVQSGAEVKKPGASVKVSCKASGFTFTNNWMHWVRQAPGQGLEWIGMIHPNSGITNINEKFKNRVTMTTDTSTSTAYMELRSLRSEDTAVYYCRSDGTYEGYFDYWGQGTLVTVSS VL: DIQLTQSPSSLSASVGDRVTITCKASQNVGTAIVWYQQKPGKAPKVLIYSASTRYTGVPSRFSGSGSGTDFTLTISSLQPEDFATYYCQQYSSSPLTFGQGTKVEIK	44.6	0.000817	18300					
mAb1.v7.NGS9 IgG (antibody, V domains shown, human IgG1 N297G) VH: EVQLVQSGAEVKKPGASVKVSCKASGFTFTNNFMHWVRQAPGQGLEWIGMIHANSGITNINEKFKNRVTMTTDTSTSTAYMELRSLRSEDTAVYYCRSDGVYEGYFDYWGQGTLVTVSS VL: DIQLTQSPSSLSASVGDRVTITCKASQNVGTAIVWYQQKPGKAPKVLIYSASTRYTGVPSRFSGSGSGTDFTLTISSLQPEDFATYYCQQYSSSPLTFGQGTKVEIKG				53000	4260	54600		
mAb1.v7.70 Fab (Fab, V domains shown, also called N32R/P52aA/T97V) VH: EVQLVQSGAEVKKPGASVKVSCKASGFTFTNRWMHWVRQAPGQGLEWIGMIHANSGITNINEKFKNRVTMTTDTSTSTAYMELRSLRSEDTAVYYCRSDGVYEGYFDYWGQGTLVTVSS VL: DIQLTQSPSSLSASVGDRVTITCKASQNVGTAIVWYQQKPGKAPKVLIYSASTRYTGVPSRFSGSGSGTDFTLTISSLQPEDFATYYCQQYSSSPLTFGQGTKVEIK	1.73	2.74e-05	15900					
mAb1.v7.NGS11 IgG (antibody, V domains shown, human IgG1 N297G) VH: EVQLVQSGAEVKKPGASVKVSCKASGFTFTNNFMHWVRQAPGQGLEWIGFIHANSGITNINEKFKNRVTMTTDTSTSTAYMELRSLRSEDTAVYYCRSDGVYEGYFDYWGQGTLVTVSS VL: DIQLTQSPSSLSASVGDRVTITCKASQNVGTAIVWYQQKPGKAPKVLIYSASTRYTGVPSRFSGSGSGTDFTLTISSLQPEDFATYYCQQYSSSPLTFGQGTKVEIKG				57700	4460	51900		
mAb1.v7.16 Fab (Fab, V domains shown, also called M34R/T97V) VH: EVQLVQSGAEVKKPGASVKVSCKASGFTFTNNWRHWVRQAPGQGLEWIGMIHPNSGITNINEKFKNRVTMTTDTSTSTAYMELRSLRSEDTAVYYCRSDGVYEGYFDYWGQGTLVTVSS VL: DIQLTQSPSSLSASVGDRVTITCKASQNVGTAIVWYQQKPGKAPKVLIYSASTRYTGVPSRFSGSGSGTDFTLTISSLQPEDFATYYCQQYSSSPLTFGQGTKVEIK	0.38	2.81e-06	7380					
mAb1.v7.NGS10 IgG (antibody, V domains shown, human IgG1 N297G) VH: EVQLVQSGAEVKKPGASVKVSCKASGFTFTNNFMHWVRQAPGQGLEWIGFIHANSGITNINEKFKNRVTMTTDTSTSTAYMELRSLRSEDTAVYYCRSDGIYEGYFDYWGQGTLVTVSS VL: DIQLTQSPSSLSASVGDRVTITCKASQNVGTAIVWYQQKPGKAPKVLIYSASTRYTGVPSRFSGSGSGTDFTLTISSLQPEDFATYYCQQYSSSPLTFGQGTKVEIKG				57700	4940	54100		
mAb1.v7.9 Fab (Fab, V domains shown, also called M34R/P52aM/T97V) VH: EVQLVQSGAEVKKPGASVKVSCKASGFTFTNNWRHWVRQAPGQGLEWIGMIHMNSGITNINEKFKNRVTMTTDTSTSTAYMELRSLRSEDTAVYYCRSDGVYEGYFDYWGQGTLVTVSS VL: DIQLTQSPSSLSASVGDRVTITCKASQNVGTAIVWYQQKPGKAPKVLIYSASTRYTGVPSRFSGSGSGTDFTLTISSLQPEDFATYYCQQYSSSPLTFGQGTKVEIK	5.05	7.02e-05	13900					
mAb1.v7.2 Fab (Fab, V domains shown, also called M34R/P52aF/T97V) VH: EVQLVQSGAEVKKPGASVKVSCKASGFTFTNNWRHWVRQAPGQGLEWIGMIHFNSGITNINEKFKNRVTMTTDTSTSTAYMELRSLRSEDTAVYYCRSDGVYEGYFDYWGQGTLVTVSS VL: DIQLTQSPSSLSASVGDRVTITCKASQNVGTAIVWYQQKPGKAPKVLIYSASTRYTGVPSRFSGSGSGTDFTLTISSLQPEDFATYYCQQYSSSPLTFGQGTKVEIK	0.67	1.06e-05	15800					
mAb1.v7.48 Fab (Fab, V domains shown, also called N32R/P52aH/T97V) VH: EVQLVQSGAEVKKPGASVKVSCKASGFTFTNRWMHWVRQAPGQGLEWIGMIHHNSGITNINEKFKNRVTMTTDTSTSTAYMELRSLRSEDTAVYYCRSDGVYEGYFDYWGQGTLVTVSS VL: DIQLTQSPSSLSASVGDRVTITCKASQNVGTAIVWYQQKPGKAPKVLIYSASTRYTGVPSRFSGSGSGTDFTLTISSLQPEDFATYYCQQYSSSPLTFGQGTKVEIK	0.795	1.26e-05	15900					
10G1 (clone 10G1.3G8), purified hybridoma antibody (antibody, V domains shown, murine hybridoma IgG) VH: QIQLVQSGPELKKPGETVKISCKASGYPFTTYGMSWVKQAPGKGLKWMGWINTDSGVPTYADDFKGRFAFSLETSANTAYLQINSLKNEDAATYFCARNIYYGWGNFDYWGQGTILTVSS VL: DILMTQSPTTLSVTPGETVSLSCRASQDIYRNLHWYQQKSQGTPRLLIKHASDSISGIPSRFTGSGSGTDFTLSINSVKPEDEGIYYCLQGYSMPYTFGGGTKLEIK							56.1	9.4
h10G1 IgG (humanized 10G1) (antibody, V domains shown, human IgG1 N297G) VH: EIQLVQSGSELKKPGASVKVSCKASGYPFTTYGMSWVRQAPGQGLEWMGWINTDSGVPTYADDFKGRFVFSLDTSVSTAYLQISSLKAEDTAVYFCARNIYYGWGNFDYWGQGTLVTVSS VL: EIVMTQSPDFQSVTPKEKVTITCRASQDIYRNLHWYQQKPDQTPKLLIKHASDSISGIPSRFSGSGSGTDFTLTINSLEAEDAAAYYCLQGYSMPYTFGGGTKVEIKG				52100	4860	21200		
